Measurements reported in article PMC7280309 (Nature Communications, 2020).

B1: DotZ (natural protein)
chain: MDEIKKDDELSQWLSTYGTITAERILGRYNISLPQDEILEAINIPSSFYRHLLQIPLKNVLNGIVIQQASDYHVYAQKLLIDYLLSGESSKEPDSQGAGTRESLEDERQRLVQLGDEFHKLELEQDNLIASSQASLMKISIDWNTKLETTLSKLNSLYKNTNSKIKKNAIRKALIKAFIHCDLVKDQSQKNKYQLIDKLNQTLAVSVGAELKESILTNLSELFQILEALNTKLDEFTDRTNHLSQQAKSFRTQFYEVILRIIELIKLLPEYKIDPAQDAINREPLYFDRTIGER
B2: DotY (natural protein)
chain: MPKYTLPTRDALLKAMQVGETSIEAAEYMATRFEQILTKAKLLPECNDMLEKIKEYAQFVKFKLLSSAQVWSGQERPTSDYQNTQENKAEFLASHLEGLPSGLKLEVAIGDDAKILRGFSSNGKMVEGDQLKTMDGLLEGWLAKNSLAISGGAVVKIDNTGNQTKVDPQEIRQLINDSEKGVAKYFADKGVGMEVAQRTYQEPKALETKREEIRQEIESGAEAPTTQSIR

Columns and labels:
[1] = target: T1, DotL with a C-terminal Strep-tag (Legionella pneumophila, UniProt Q5ZYC6 1-783); experiment: affinity purification with mass spectrometry; conditions: partners not purified
T1 sequence: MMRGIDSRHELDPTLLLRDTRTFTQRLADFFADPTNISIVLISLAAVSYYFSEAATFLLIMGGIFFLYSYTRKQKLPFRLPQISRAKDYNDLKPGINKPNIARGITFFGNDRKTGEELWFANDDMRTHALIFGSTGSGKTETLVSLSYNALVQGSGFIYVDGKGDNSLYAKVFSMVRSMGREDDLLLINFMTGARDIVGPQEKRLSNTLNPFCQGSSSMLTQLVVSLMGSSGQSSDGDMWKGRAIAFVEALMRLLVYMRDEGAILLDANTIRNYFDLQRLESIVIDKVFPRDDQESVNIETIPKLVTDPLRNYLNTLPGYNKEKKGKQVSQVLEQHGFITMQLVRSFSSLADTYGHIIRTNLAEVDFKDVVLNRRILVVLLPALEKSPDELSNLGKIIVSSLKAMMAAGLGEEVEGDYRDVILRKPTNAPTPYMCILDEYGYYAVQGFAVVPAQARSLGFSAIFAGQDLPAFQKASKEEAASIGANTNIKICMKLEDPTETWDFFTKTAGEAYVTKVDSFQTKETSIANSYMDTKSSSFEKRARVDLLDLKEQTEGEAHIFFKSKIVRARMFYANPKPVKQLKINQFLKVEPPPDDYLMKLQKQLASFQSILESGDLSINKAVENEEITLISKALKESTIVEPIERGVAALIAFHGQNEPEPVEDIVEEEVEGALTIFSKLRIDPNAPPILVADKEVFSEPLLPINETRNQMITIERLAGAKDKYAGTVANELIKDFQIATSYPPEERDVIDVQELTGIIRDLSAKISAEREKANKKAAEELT

[2] = target: B1; experiment: cryo-EM structure; conditions: both partners purified
[3] = target: B2; experiment: cryo-EM structure; conditions: both partners purified

Binder: B1
- binding result [1]: binds

Binder: B2
- binding result [2]: binds

B3: DotN (natural protein)
chain: MNVNQTMADNQQRCELKLIASPGSWRLYSARKIDERFKSYEQKIFQRDRYTCQFCGFQARLYQDIVNLDGDYTNNRLSNLVTACCFCAQCFFVESVGVGGYGGGTLIYLPELTQAELNSLCHVLFCAITNDTGYKSSAQNIYRSFKFRSQIVEEKFGEGTSDPAIFGQLMIDSGVNSEEIREKLFKNIRLLPSRAKFRKQIEKWAASALEEIAD
- binding result [2]: binds
- binding result [3]: binds
- binding result [1]: binds
